The source of these data is patent US20110076265A1 (POMONA RICERCA S R L, published 2011).

Assay [1] has as its target H1-subtype hemagglutinin of influenza A virus A/Wilson-Smith/33 (influenza A virus A/Wilson-Smith/33 …, UniProt P03454 18-565). In words: ELISA, sequential dilutions of purified Fab on infected cell lysates. On the technique in general: In an ELISA, binding on a coated surface is turned into a signal by an enzyme label.
In assay [2] the target is Hemagglutinin of influenza B virus B/Lee/40 (influenza B virus B/Lee/40, UniProt P03460 16-584). The experiment in a line: immunofluorescence on fixed, permeabilized infected cells.
In assay [3] the target is T1, H3-subtype hemagglutinin of influenza A virus A/Aichi/2/68 (H3N2) (influenza A virus A/Aichi/2/68 (H3N2), UniProt P03437 17-566).
T1 construct: also called A/Aichi/2/68 (ATCC VR-547)
The assay is described as above.

Assay [4] addresses HA protein (H1-subtype hemagglutinin) of influenza A virus A/PR/08/1934 (influenza A virus A/PR/08/1934 (H1N1), UniProt P03452 18-565). The experiment in a line: immunofluorescence on fixed, permeabilized infected cells, Fab49 at 100 µg/ml.

B1: Fab49 (human monoclonal Fab fragment produced by bacterial clone INF49) (Fab, V domains shown)
VH: LESGGGLVQPGGSLRLSCAASGITFSSYAMSWVRQAPGKGLEWVSTVNSGGGSTYYGDSVRGRFTISRDNSKSTLYLQLNSLRAEDTAIYYCAKDKGRPIFGLVTPSYYMDVWGNGT
VL: ELTQSPSSLSASVGDSVTITCRTSERISTYLNWYQQKPGKAPRLLVSGASTLQGGVPSRFSGSGSGTAFTLTINSLQPEDFATYYCQQSYSTPLTFGGGT
With B1, the binding result is given as “binds” in assay [1], “no binding (tested: 100 µg/ml)” in assay [2], “no binding (tested: 100 µg/ml)” in assay [3] and “binds” in assay [4].
